{
  "source": "patent US20240228586A1",
  "data": [
    {"molecular_target": "IL-12 receptor complex (IL-12Rb1 and IL-12Rb2) on preactivated primary mouse CD8+ T cells (mouse) (UniProt Q60837)", "sequence (Q60837 20-738, chain 1 of 2)": "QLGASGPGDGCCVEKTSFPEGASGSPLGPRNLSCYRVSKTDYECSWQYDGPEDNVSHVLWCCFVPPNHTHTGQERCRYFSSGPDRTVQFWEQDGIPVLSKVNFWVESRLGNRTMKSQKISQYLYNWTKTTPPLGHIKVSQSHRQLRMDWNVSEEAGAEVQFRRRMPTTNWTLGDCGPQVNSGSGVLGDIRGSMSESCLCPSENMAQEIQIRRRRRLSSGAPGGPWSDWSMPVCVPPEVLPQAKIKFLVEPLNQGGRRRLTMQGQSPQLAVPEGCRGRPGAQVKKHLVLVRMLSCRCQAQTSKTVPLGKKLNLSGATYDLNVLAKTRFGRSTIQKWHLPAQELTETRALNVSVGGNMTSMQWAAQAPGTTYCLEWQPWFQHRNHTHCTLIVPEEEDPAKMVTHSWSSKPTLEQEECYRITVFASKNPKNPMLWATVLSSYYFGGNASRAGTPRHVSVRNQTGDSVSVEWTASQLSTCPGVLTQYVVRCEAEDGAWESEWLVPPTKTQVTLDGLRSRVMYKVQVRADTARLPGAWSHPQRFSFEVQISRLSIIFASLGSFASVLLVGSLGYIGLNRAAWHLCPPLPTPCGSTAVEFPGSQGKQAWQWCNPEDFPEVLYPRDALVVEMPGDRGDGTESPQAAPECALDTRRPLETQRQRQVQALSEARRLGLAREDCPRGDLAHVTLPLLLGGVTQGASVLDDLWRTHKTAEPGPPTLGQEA", "sequence (chain, as listed by the source, chain 2 of 2)": "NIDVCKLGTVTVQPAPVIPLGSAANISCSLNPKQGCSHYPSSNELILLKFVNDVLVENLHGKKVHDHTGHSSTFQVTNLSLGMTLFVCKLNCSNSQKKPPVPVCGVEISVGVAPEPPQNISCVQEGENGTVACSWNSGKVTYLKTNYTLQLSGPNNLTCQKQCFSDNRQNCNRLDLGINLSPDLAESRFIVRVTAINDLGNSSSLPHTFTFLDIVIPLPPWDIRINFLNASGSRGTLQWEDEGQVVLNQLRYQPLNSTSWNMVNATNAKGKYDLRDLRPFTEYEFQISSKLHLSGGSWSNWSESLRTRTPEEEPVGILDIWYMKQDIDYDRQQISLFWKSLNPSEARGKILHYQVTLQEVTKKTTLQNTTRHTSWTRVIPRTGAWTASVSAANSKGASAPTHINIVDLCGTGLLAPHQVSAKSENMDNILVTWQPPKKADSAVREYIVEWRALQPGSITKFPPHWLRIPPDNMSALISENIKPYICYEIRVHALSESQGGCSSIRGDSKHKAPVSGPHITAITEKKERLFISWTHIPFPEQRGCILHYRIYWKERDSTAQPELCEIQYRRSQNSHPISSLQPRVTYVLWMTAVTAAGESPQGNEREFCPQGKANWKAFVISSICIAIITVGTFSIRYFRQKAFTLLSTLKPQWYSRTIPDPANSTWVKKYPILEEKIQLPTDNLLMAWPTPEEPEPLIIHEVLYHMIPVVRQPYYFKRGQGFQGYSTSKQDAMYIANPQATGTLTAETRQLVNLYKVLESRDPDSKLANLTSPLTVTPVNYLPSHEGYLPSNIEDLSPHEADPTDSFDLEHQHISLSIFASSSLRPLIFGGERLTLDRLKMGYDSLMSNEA", "experiment": "cell-based or functional assay", "values": [
      {"substance": "M-L1-IL12-MSA (from UniProt P43432 23-335)", "STAT4 phosphorylation in preactivated primary mouse CD8+ T cells, EC50 compared with unmodified IL-12 (fold decrease)": 100},
      {"substance": "M-L1-IL12 (mouse IL-12Rb1 mask fused through the (G3S)11 linker to the N-terminus of mouse p35, with mouse p40) (from UniProt P43432 23-335)", "STAT4 phosphorylation in preactivated primary mouse CD8+ T cells, EC50 compared with unmodified IL-12 (fold decrease)": 100},
      {"substance": "M-L1-IL12-CBD (from UniProt P04275 1670-1874)", "STAT4 phosphorylation in preactivated primary mouse CD8+ T cells, EC50 compared with unmodified IL-12 (fold decrease)": 100}
    ]}
  ]
}
